# How the values were obtained:
# Assay type in all cases: cell-based, human
# [1] = tested on: regulatory T lymphocytes; assay: Induction of regulatory T cells: sensitized CD4+ T cells added to autologous PBMCs stimulated with PPD or CMV; conditions: CD4+ T sensitized with PPD-loaded dendritic cells treated with dexamethasone and control siRNA
# Description: To evaluate the induction of the regulatory T cells (Tregs), immature monocyte-derived dendritic cells treated on the fifth day of culture (D5) with a controlled siRNA or an siRNA targeting GILZ (siRNA GILZ) alone, or else with either dexamethasone (DEX) or IL-10, or not treated, and then treated with the PPD on D7, were cocultured with CD4^+ T cells, as described in example 2. The CD4^+ T cells were purified on the seventh day of DC-CD4^+ T coculture and added in increasing amounts to 10^5 autologous PBMCs stimulated with PPD (1 μg/ml, STATENS SERUM INSTITUTE) or the cytomegalovirus (CMV, 25 μg/ml, BEHRING).
# The hypothesis that the GILZ-expressing dendritic cells inhibit the CD4^+ T lymphocyte response by inducing regulatory T lymphocytes during antigen presentation was verified experimentally. Dendritic cells were treated with a control or anti-GILZ siRNA, alone or with dexamethasone, and with PPD (first culture). After washing, the dendritic cells were used to stimulate autologous CD4^+ T lymphocytes. The CD4^+ T lymphocytes of this second culture (sensitized CD4^+ T lymphocytes) were purified and added in increasing amounts to autologous PBMCs stimulated either with PPD or with CMV (third culture). The CD4^+ T lymphocytes sensitized with nontreated dendritic cells or dendritic cells treated with a control siRNA have no effect on the proliferative response of the third culture. […]
# [2] = tested on: GILZ gene; assay: Quantitative RT-PCR analysis of GILZ gene expression in monocyte derived dendritic cells; conditions: added on fifth day of culture; Dex 10^-7 M, IL-10 100 ng/ml, TGFβ 20 ng/ml; detected before and after CD40L
# Procedure: (§1) Immature monocyte derived dendritic cells (iMDDCs) were prepared as described in Palucka et al., J. Immunol., 1998, 160, 4587-4595, apart from minor modifications. Briefly, human monocytes were isolated from the peripheral blood mononucleocell fraction by negative selection, according to the manufacturer's (DYNAL) recommendations. The monocytes (1 to 2×10^5 cells/ml) were cultured for 7 days in the presence of GM-CSF and IL-4 (100 ng/ml and 50 ng/ml, respectively, SCHERING-PLOUGH). The maturation of the dendritic cells (MDDCs) was induced in the presence of CD40L (250 ng/ml; IMMUNEX). Dexamethasone (DEX, SIGMA), recombinant human IL-10 (rhIL-10, DNAX) and TGFβ (R&D) were used at the following respective concentrations: 10^−7 M, 100 ng/ml and 20 ng/ml. For the in vivo experiments, the antigen-presenting cells (APCs) were purified using the monocyte negative selection kit according to the manufacturer's (DYNAL) recommendations.
# The expression of the human GILZ gene was analyzed by real time RT-PCR according to the manufacturer's recommendations (Lightcycler™, ROCHE), using the pair of primers described in Berrebi et al. BLOOD, 2003, 101, 729-738 and the human β-actin gene as internal control.
# [3] = tested on: CCL3, CCL5 and CXCL8; assay: Chemokine ELISA in dendritic cell culture supernatant after CD40L; conditions: dendritic cells treated before addition of CD40L
# Procedure: as §1
# The production of chemokines in the culture supernatant of the dendritic cells was analyzed using ELISA kits (R&D SYSTEMS) according to the manufacturer's instructions.
# [4] = tested on: monocyte derived dendritic cells; assay: Dendritic cell phenotype by flow cytometry (CD80, CD83, CD86, B7-H1); conditions: treated D5, CD40L D7, phenotype D9
# Procedure: as §1
# The dendritic cell phenotype was analyzed by four-color flow cytometry, using the following monoclonal antibodies: phycoerythrin-coupled anti-CD83 (CD83-PE, COULTER); phycoerythrin-coupled anti-CD80 (CD80-PE, BD BIOSCIENCES); anti-B7-H1 (CLINISCIENCES) and phycoerythrin-coupled anti-CD86 (CD86-PE, BD PHARMINGEN). The anti-B7-H1 antibody is detected using a phycoerythrin-coupled secondary antibody (BD PHARMINGEN). […]
Molecule,anti-CMV response of the third culture [1],expression of GILZ (RT-PCR) [2],"CD40L-induced production of the chemokines CCL3, CCL5 and CXCL8 [3]",expression of B7-H1 [4],"expression of CD80, CD83 and CD86 [4]"
C[C@@H]1C[C@H]2[C@@H]3CCC4=CC(=O)C=C[C@]4(C)[C@@]3(F)[C@@H](O)C[C@]2(C)[C@@]1(O)C(=O)CO [dexamethasone],no effect,–,–,–,–
TGFβ,–,stimulates the expression of GILZ,–,–,–
"IL-10: recombinant human IL-10 (rhIL-10, DNAX) (protein, UniProt P22301 19-178, looked up) Interleukin-10: SPGQGTQSENSCTHFPGNLPNMLRDLRDAFSRVKTFFQMKDQLDNLLLKESLLEDFKGYLGCQALSEMIQFYLEEVMPQAENQDPDIKAHVNSLGENLKTLRLRLRRCHRFLPCENKSKAVEQVKNAFNKLQEKGIYKAMSEFDIFINYIEAYMTMKIRN",–,stimulates the expression of GILZ,partially inhibited,stimulate,inhibit

# Source: patent US8198235B2, “Use of GILZ protein expressed in dendritic cells to modulate an antigen-specific immune response” (Assistance Publique-Hopitaux de Paris, priority 2004, dated 2012)
